{"source": "the DeepSol protein solubility set"}
{"experiment": "soluble on expression in E. coli; label from the status in PepcDB or PDB records"}
{"sequence": "SGCIQSITCKARIRRENIVVYDVCATIDQCPTRIEETSPIVLRYKTPYFKASARVVMPPIPRHETWVVGWIQACNQMEFFNTYSDLGMSSWELPDLREGRVKAISDSDGVSYPWYGNTTETVTLVGPTNKISRFSVSMNDNFYPSVTWAVPVSDSNVPLLTRIKRDQSFTTWLVAMNTTTKEKIILQTIKWRMRVDIEVDPLQLLGQRARLVGRTQQEQPRILSRMEPIPPNALVKPNANDAQVLMWRPKRGPPLVVIPPK", "soluble on expression in E. coli": "soluble"}
{"sequence": "SGDVLWDIPTPKIIEECEHLEDGIYGIFQSTFLGASQRGVGVAQGGVFHTMWHVTRGAFLVRNGKKLIPSWASVKEDLVAYGGSWKLEGRWDGEEEVQLIAAVPGKNVVNVQTKPSLFKVRNGGEIGAVALDYPSGTSGSPIVNRNGEVIGLYGNGILVGDNSFVSAISQTEVKEEGKEELQEIPTMLKKGMTTVLDFHPGAGKTRRFLPQILAECARRRLRTLVLAPTRVVLSEMKEAFHGLDVKFHTQAFSAHGSGREVIDAMCHATLTYRMLEPTRVVNWEVIIMDEAHFLDPASIAARGWAAHRARANESATILMTATPPGTSDEFPHSNGEIEDVQTDIPSEPWNTGHDWILADKRPTAWFLPSIRAANVMAASLRKAGKSVVVLNRKTFEREYPTIKQKKPDFILATDIAEMGANLCVERVLDCRTAFKPVLVDEGRKVAIKGPLRISASSAAQRRGRIGRNPNRDGDSYYYSEPTSENNAHHVCWLEASMLLDNMEVRGGMVAPLYGVEGTKTPVSPGEMRLRDDQRKVFRELVRNCDLPVWLSWQVAKAGLKTNDRKWCFEGPEEHEILNDSGETVKCRAPGGAKKPLRPRWCDERVSSDQSALSEFIKFAEGRR", "soluble on expression in E. coli": "soluble"}
{"sequence": "SGGRHIQAIRCWTIWKYMKDYFPISLVKTAELDPSRNYIAGFHPHGVLAVGAFANLCTESTGFSSIFPGIRPHLMMLTLWFRAPFFRDYIMSAGLVTSEKESAAHILNRKGGGNLLGIIVGGAQEALDARPGSFTLLLRNRKGFVRLALTHGAPLVPIFSFGENDLFDQIPNSSGSWLRYIQNRLQKIMGISLPLFHGRGVFQYSFGLIPYRRPITTVVGKPIEVQKTLHPSEEEVNQLHQRYIKELCNLFEAHKLKFNIPADQHLEFC", "soluble on expression in E. coli": "soluble"}
{"sequence": "SGLVPRGSHMRLRPLGIEGVWEITPEQRADPRGVFLDWYHVDRFAEAIGRPLRLAQANLSVSVRGVVRGIHFVDVPPGQAKYVTCVRGAVFDVVVDLRVGSPTYGCWEGTRLDDVSRRAVYLSEGIGHGFCAISDEATLCYLSSGTYDPATEHGVHPLDPELAIDWPTGTPLLSPRDQDALLLAEARDAGLLPTYATCQAVTVPSPAPGSVGDPGP", "soluble on expression in E. coli": "soluble"}
{"sequence": "SGNTSSERTGMGQEKANRRDSRGTKEGDRPKILMDSPEDADIFHGEDLKAPLEKEEFIEWRPDLEGSEKTDTLDRPTVFRWTGAGKEVYISGSFNNWTNKIPLIRSQNNFVAIVDLPEGEHQYKFYVDGLWTHDPTEPVVTNQLGTVNNIIQVKKTDFEVFDALMVDSQKCSDMSDLSSSPPGPYHQDAYTPKQEEKFKSPPILPPHLLQVILNKDTGISCDPALLPEPNHVMLNHLYALSIKDGVMVLSATHRYKKKYVTTLLYKPI", "soluble on expression in E. coli": "not soluble"}
{"sequence": "SGRHERDAFDTLFDHAPDKLNVVKKTLITFVNKHLNKLNLEVTELETQFADGVYLVLLMGLLEGYFVPLHSFFLTPDSFEQKVLNVSFAFELMQDGGLEKPKPRPEDIVNCDLKSTLRVLYNLFTKYRNVE", "soluble on expression in E. coli": "soluble"}
{"sequence": "SGSQAGSFRKASPQTPNIDENEKRIKRLEKLKRDLQNIKNERGILQGILAKYKDLNDRTNFETFMLEMQHNQMMTDLKRMSQDISEALYKCQHLTKENQLYCCRNCHLLIESNLIQHKVRMLWKENRQLLRKQIALEECNIKTKILCKEGSQKIKDEYSRQAAGKQIIVVPGSKEEAAMSNPCA", "soluble on expression in E. coli": "soluble"}
{"sequence": "SKERRAPQPVVARCKLVLVGDVQCGKTAMLQVLAKDCYPETYVPTVFENYTACLETEEQRVELSLWDTSGSPYYDNVRPLCYSDSDAVLLCFDISRPETVDSALKKWRTEILDYCPSTRVLLIGCKTDLRTDLSTLMELSHQKQAPISYEQGCAIAKQLGAEIYLEGSAFTSEKSIHSIFRTASMLCLNKPSPLPQKSPVRSLSKRLLHLPSRSELISSTFKKEKAKSCSIM", "soluble on expression in E. coli": "soluble"}
